# Reference: IntAct's records for PubMed 29892012
# B1: CLK4-associating serine/arginine rich protein (Homo sapiens), Q8N2M8 (parent)
# chain: MWHEARKHERKLRGMMVDYKKRAERRREYYEKIKKDPAQFLQVHGRACKVHLDSAVALAAESPVNMMPWQGDTNNMIDRFDVRAHLDHIPDYTPPLLTTISPEQESDERKCNYERYRGLVQNDFAGISEEQCLYQIYIDELYGGLQRPSEDEKKKLAEKKASIGYTYEDSTVAEVEKAAEKPEEEESAAEEESNSDEDEVIPDIDVEVDVDELNQEQVADLNKQATTYGMADGDFVRMLRKDKEEAEAIKHAKALEEEKAMYSGRRSRRQRREFREKRLRGRKISPPSYARRDSPTYDPYKRSPSESSSESRSRSRSPTPGREEKITFITSFGGSDEEAAAAAAAAAASGVTTGKPPAPPQPGGPAPGRNASARRRSSSSSSSSSASRTSSSRSSSRSSSRSRRGGGYYRSGRHARSRSRSWSRSRSRSRRYSRSRSRGRRHSGGGSRDGHRYSRSPARRGGYGPRRRSRSRSHSGDRYRRGGRGLRHHSSSRSRSSWSLSPSRSRSLTRSRSHSPSPSQSRSRSRSRSQSPSPSPAREKLTRPAASPAVGEKLKKTEPAAGKETGAAKPKLTPQEKLKLRMQKALNRQFKADKKAAQEKMIQQEHERQEREDELRAMARKIRMKERERREKEREEWERQYSRQSRSPSPRYSREYSSSRRRSRSRSRSPHYRH
# partner: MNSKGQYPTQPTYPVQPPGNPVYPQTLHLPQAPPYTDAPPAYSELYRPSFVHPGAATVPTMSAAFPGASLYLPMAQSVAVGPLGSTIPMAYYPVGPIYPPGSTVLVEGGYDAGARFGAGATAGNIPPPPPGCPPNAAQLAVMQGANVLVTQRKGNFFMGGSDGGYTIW
# B2: F-box/LRR-repeat protein 12 (Homo sapiens), Q9NXK8 (parent)
# chain: MATLVELPDSVLLEIFSYLPVRDRIRISRVCHRWKRLVDDRWLWRHVDLTLYTMRPKVMWHLLRRYMASRLHSLRMGGYLFSGSQAPQLSPALLRALGQKCPNLKRLCLHVADLSMVPITSLPSTLRTLELHSCEISMAWLHKQQDPTVLPLLECIVLDRVPAFRDEHLQGLTRFRALRSLVLGGTYRVTETGLDAGLQELSYLQRLEVLGCTLSADSTLLAISRHLRDVRKIRLTVRGLSAPGLAVLEGMPALESLCLQGPLVTPEMPSPTEILSSCLTMPKLRVLELQGLGWEGQEAEKILCKGLPHCMVIVRACPKESMDWWM
# B3: F-box/LRR-repeat protein 12 (Homo sapiens), Q9NXK8 (parent)
# chain: B2 chain
# partner: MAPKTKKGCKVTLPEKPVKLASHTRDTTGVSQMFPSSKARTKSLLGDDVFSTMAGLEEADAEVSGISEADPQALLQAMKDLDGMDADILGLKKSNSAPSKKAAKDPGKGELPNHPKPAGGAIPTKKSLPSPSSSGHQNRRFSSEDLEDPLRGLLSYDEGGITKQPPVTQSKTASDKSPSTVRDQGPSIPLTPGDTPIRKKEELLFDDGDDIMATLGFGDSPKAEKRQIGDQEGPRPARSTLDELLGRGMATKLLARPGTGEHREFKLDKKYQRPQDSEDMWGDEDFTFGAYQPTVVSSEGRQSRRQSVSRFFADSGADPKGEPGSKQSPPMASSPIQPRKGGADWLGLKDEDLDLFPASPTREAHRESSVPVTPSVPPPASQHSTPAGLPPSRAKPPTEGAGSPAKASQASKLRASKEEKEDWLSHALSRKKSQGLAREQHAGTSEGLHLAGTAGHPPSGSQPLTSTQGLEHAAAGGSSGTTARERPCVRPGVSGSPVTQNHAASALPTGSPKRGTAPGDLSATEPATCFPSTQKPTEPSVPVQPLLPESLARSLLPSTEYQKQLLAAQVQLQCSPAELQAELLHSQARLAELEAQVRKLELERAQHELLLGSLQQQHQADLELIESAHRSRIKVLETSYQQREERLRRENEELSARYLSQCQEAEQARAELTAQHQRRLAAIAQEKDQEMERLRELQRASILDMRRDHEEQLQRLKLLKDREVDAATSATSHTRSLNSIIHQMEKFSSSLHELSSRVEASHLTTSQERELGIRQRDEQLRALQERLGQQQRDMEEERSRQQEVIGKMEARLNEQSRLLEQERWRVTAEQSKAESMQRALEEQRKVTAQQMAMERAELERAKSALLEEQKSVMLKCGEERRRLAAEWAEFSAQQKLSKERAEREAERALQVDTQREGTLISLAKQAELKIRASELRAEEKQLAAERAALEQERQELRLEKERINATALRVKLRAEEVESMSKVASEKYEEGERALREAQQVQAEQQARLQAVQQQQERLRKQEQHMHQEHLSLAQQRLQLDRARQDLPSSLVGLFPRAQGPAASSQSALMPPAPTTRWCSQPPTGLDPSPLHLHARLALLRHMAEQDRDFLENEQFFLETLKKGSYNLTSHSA
# B4: Forkhead box protein S1 (Homo sapiens), O43638 (parent)
# chain: MQQQPLPGPGAPTTEPTKPPYSYIALIAMAIQSSPGQRATLSGIYRYIMGRFAFYRHNRPGWQNSIRHNLSLNECFVKVPRDDRKPGKGSYWTLDPDCHDMFEHGSFLRRRRRFTRQTGAEGTRGPAKARRGPLRATSQDPGVPNATTGRQCSFPPELPDPKGLSFGGLVGAMPASMCPATTDGRPRPPMEPKEISTPKPACPGELPVATSSSSCPAFGFPAGFSEAESFNKAPTPVLSPESGIGSSYQCRLQALNFCMGADPGLEHLLASAAPSPAPPTPPGSLRAPLPLPTDHKEPWVAGGFPVQGGSGYPLGLTPCLYRTPGMFFFE
# B5: FAST kinase domain-containing protein 5, mitochondrial (Homo sapiens), Q7L8L6 (parent)
# chain: MAATLKSLKLVRYRAFCSPSAFGAVRSVSYWNVSSTQHGGQDPPEHISLCHSAKKVKNICSTFSSRRILTTSSAHPGLEFSKTSSSKASTLQLGSPRATGVDEEDVEVFDSFENMRVFLQLRPEYRVHSYNASETSQLLSVSEGELILHKVRVNQNNLQAQVIVDYLCKLSSLPAEQHPVLLGSTSFALLCQLSVKKIQLFDTQDLINVLKAFVILGIPHSHSMLDVYETKCCHQVWEMNMDQLLLVADLWRYLGRKVPRFLNIFSSYLNLHWKDLSLSQLVHLIYVIGENRQVSQDLMQKLESLILKYIDLINLEEVGTICLGFFKSSTNLSEFVMRKIGDLACANIQHLSSRSLVNIVKMFRFTHVDHINFMKQIGEIAPQRIPSLGVQGVMHLTLYCSALRFLNEGVMNAVAASLPPRVAHCRSKDVAKILWSFGTLNYKPPNAEEFYSSLISEIHRKMPEFNQYPEHLPTCLLGLAFLEYFPVELIDFALSPGFVRLAQERTKFDLLKELYTLDGTVGIECPDYRGNRLSTHLQQEGSELLWYLAEKDMNSKPEFLETVFLLETMLGGPQYVKHHMILPHTRSSDLEVQLDVNLKPLPFNREATPAENVAKLRLEHVGVSLTDDLMNKLLKGKARGHFQGKTESEPGQQPMELENKAAVPLGGFLCNVADKSGAMEMAGLCPAACMQTPRMKLAVQFTNRNQYCYGSRDLLGLHNMKRRQLARLGYRVVELSYWEWLPLLKRTRLEKLAFLHEKVFTSAL
# partner: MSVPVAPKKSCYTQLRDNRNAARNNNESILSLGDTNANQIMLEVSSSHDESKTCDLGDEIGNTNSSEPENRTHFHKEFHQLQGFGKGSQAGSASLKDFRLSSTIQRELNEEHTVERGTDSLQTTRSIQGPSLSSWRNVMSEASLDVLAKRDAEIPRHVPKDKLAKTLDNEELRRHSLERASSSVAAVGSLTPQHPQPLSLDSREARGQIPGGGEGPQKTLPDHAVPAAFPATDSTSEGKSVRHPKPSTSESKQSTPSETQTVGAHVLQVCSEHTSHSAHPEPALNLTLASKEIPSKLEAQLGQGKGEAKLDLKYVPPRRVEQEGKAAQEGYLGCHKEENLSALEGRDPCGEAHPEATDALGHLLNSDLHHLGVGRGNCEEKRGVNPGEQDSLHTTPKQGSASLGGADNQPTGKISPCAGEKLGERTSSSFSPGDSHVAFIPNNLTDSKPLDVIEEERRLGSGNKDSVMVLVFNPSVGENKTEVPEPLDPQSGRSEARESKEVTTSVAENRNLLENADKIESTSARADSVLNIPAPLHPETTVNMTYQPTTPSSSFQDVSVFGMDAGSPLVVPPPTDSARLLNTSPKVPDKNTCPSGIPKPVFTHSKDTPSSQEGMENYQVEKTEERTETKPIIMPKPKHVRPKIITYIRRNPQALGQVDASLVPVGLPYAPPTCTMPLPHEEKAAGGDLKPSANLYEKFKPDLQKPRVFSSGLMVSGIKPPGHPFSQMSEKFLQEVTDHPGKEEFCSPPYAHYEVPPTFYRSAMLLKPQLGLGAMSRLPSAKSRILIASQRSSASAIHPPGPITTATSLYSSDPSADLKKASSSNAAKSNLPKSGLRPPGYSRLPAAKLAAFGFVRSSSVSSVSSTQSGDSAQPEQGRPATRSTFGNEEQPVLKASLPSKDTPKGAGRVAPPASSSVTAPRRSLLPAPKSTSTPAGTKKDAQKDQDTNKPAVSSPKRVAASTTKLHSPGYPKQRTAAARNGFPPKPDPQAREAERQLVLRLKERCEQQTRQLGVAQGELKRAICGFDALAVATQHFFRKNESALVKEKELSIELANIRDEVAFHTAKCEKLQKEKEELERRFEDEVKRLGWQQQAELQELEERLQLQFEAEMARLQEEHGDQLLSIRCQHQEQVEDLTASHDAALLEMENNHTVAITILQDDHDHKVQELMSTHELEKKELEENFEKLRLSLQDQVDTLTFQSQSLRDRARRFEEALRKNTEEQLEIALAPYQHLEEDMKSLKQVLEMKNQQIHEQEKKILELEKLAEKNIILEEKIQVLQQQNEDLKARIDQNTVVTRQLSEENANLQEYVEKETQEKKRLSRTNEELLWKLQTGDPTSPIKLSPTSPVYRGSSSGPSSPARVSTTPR
# Variants of: B1
# Settings: with dazp2_human DAZAP2, Q15038
row,Variant,effect of a mutation on the interaction
1,I163V,with no effect

# Variants of: B2
# Settings: with dock8_human DOCK8, Q8NF50
# dock8_human DOCK8, Q8NF50, sequence (Q8NF50 whole entry): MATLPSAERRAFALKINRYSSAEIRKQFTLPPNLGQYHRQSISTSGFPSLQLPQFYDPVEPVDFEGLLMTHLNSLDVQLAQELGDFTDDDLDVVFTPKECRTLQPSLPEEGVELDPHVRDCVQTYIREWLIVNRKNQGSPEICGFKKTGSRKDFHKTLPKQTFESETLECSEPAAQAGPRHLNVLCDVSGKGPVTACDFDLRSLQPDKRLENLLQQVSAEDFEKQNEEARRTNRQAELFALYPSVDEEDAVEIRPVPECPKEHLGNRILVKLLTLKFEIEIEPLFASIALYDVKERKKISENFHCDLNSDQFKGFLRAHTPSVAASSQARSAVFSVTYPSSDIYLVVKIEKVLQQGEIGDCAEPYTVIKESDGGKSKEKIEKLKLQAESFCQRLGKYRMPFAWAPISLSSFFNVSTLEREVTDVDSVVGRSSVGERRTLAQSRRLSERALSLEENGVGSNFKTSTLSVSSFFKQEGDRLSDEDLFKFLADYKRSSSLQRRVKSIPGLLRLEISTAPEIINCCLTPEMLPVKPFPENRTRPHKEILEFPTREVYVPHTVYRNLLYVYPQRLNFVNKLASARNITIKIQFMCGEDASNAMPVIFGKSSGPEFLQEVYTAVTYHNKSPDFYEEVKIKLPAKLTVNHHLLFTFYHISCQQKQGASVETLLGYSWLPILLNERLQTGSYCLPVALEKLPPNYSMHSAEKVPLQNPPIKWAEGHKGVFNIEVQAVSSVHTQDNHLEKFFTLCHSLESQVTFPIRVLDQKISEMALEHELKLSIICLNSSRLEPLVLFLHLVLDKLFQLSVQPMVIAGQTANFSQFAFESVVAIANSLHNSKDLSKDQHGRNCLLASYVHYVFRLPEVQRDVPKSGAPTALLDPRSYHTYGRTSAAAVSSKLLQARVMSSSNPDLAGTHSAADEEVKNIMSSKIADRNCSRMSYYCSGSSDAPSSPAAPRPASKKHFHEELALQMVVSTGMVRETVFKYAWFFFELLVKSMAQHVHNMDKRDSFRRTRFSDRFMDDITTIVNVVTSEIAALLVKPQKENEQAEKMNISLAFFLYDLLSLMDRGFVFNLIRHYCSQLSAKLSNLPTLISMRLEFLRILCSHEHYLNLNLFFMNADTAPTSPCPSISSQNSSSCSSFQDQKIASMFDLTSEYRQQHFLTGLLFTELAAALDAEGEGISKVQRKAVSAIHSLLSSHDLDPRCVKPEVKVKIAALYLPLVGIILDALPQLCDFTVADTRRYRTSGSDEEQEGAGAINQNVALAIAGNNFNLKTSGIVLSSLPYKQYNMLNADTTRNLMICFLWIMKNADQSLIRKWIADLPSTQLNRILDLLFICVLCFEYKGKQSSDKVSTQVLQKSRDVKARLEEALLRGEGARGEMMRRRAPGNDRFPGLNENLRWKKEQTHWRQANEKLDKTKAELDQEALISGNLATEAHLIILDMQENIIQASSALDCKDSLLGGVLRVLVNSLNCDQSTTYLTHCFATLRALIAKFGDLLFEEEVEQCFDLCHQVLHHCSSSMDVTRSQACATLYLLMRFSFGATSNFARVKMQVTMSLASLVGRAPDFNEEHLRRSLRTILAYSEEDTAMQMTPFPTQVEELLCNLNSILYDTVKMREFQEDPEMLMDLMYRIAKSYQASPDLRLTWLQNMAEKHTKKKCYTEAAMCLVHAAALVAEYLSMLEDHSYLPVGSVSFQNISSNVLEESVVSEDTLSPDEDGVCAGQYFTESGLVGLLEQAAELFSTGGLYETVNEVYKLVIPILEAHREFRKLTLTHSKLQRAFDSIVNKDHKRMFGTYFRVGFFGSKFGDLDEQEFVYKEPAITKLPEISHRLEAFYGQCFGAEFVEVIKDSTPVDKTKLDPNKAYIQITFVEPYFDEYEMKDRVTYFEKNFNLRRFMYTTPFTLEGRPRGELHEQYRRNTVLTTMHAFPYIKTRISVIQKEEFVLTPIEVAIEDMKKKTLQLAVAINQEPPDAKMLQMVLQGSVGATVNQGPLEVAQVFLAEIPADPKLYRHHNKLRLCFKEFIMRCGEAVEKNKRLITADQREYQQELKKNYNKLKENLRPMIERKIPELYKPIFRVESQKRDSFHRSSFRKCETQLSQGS
row,Variant,effect of a mutation on the interaction
1,I313V,with no effect

# Variants of: B3
# Settings: with fbf1_human FBF1, Q8TES7
row,Variant,effect of a mutation on the interaction
1,I313V,with no effect

# Variants of: B4
# Settings: with rbpms_human RBPMS
row,Variant,effect of a mutation on the interaction
1,T147M,with no effect

# Variants of: B5
# Settings: with mtus2_human MTUS2, Q5JR59
row,Variant,effect of a mutation on the interaction
1,E483D,with no effect
